Here are results for one molecule from patent US20220177567A1 (WASHINGTON UNIVERSITY, published 2022).

In test [1] the target is T1, human FLAG-tagged IL12Rβ1 expressed on EL-4 cells (human, UniProt P42701 24-662).
T1 construct: whole, on cells; EL-4 cell line transduced with a construct encoding human FLAG-tagged IL12Rβ1; also called EL-4-human IL-12Rβ1 cells; human IL12Rβ1; not shown: FLAG tag
Put plainly: flow cytometry, hybridoma supernatant followed by anti-mouse IgG PE. An excerpt: EL-4-human IL-12Rβ1 cell line: The EL-4 cell line was transduced with a construct encoding the human FLAG-tagged IL12Rβ1 Flow cytometry: EL-4-human IL-12Rβ1 cells were stained with supernatants from different hybridoma clones followed by anti-mouse IgG Pe. Staining was compared with that obtained with anti-FLAG Tag followed by anti-mouse IgG Pe. Hybridoma clones staining the same percentage of cells stained by anti-FLAG Tag were selected and further tested in primary cells (FIG. 2).
For orientation: A flow cytometer gives signals particle by particle.

The target in test [2] is T2, human IL12Rβ1 (native, on human primary cells) (human, UniProt P42701 24-662).
T2 construct: whole, on cells; Endogenous receptor on human tonsil ILC3 and peripheral blood lymphocytes; also called CD212; interleukin 12 receptor subunit beta 1
As to the kind of experiment: summary statement; no affinity method or value given.

B1: 1G6 anti-IL12Rβ1 monoclonal antibody (antibody, V domains shown)
VH: RVQLQQSGAELAKPGASVRLSCMASGYTFTSYWMHWVKQRPGQGLEWIGYIDPNNGYTKYSQKFKDKATLTADKSSSTANMRLSSLTYEDSAVYYCVRGGEIYYFDYWGQGTTLTVSS
VL: DIQMTQSPSSLSASLGGKVTITCKASQDIYKYIAWYQHKPGKGPRLLIHYTSTLQPGIPSRFSGSGSGRDYSFSISDLEPEDIATYYCLQYDNILWTFGGGTKLEIKR
notes: Hybridoma monoclonal antibody, detected with anti-mouse IgG PE; Tested as hybridoma supernatant and also in biotinylated form; also called IG6; mab (1 G6)
B1: the binding result in test [1] and in test [2] was “binds” in each case.
